Columns and labels:
[1] = biological target: His-tagged human BCMA (ACRO Biosystems, Cat. #: BCA-H522y) (human); test: SPR (BIAcore T200) affinity ranking; crude sdAb captured via tag, antigen at 100 nM
[2] = biological target: Fc-fused Cynomolgus BCMA (ACRO Biosystems, Cat. #: BCA-C5253) (cynomolgus); test: as above

His-tagged human BCMA (ACRO Biosystems, Cat. #: BCA-H522y) (human), sequence (Q02223 1-54): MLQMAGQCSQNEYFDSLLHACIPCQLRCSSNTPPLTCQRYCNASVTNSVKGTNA

| Binder | Kd [1] | koff [1] | kon [1] | Kd [2] | koff [2] | kon [2] |
| --- | --- | --- | --- | --- | --- | --- |
| anti-BCMA sdAb BCMA11 (VHH, part only, affinity tag) VHH: QVQLVESGGGVVQPGGSLRLSCAASGFAFSNYAMTWGRQAPGQRLEWVSTIDSGGGSTTYSDSVKGRFTISRDNAKNTLYLQLNNLKSEDTAVYYCSENVDCNGDYCYRANYWGQGTQVTVSS | 53 nM | 0.009 s⁻¹ | 170000 M⁻¹ s⁻¹ | 16 nM | 0.007 s⁻¹ | 450000 M⁻¹ s⁻¹ |
| anti-BCMA sdAb BCMA9 (VHH, part only, affinity tag) VHH: QVQLVESGGGSVQAGGSLRLSCKSSGAPYSSNCMAWFRQTPGKGREGVATIDLASHDTYYADSVKGRFTISRDNAKNTMYLQMNSLKPEDTAMYYCAATSWWPCTTFNGGYANWGQGTQVTVSS | 8.5 nM | 0.42 s⁻¹ | 5e+07 M⁻¹ s⁻¹ | 2.4 nM | 0.0015 s⁻¹ | 650000 M⁻¹ s⁻¹ |
| anti-BCMA sdAb BCMA10 (VHH, part only, affinity tag) VHH: QVQLAESGGGLVQPGGSLRLSCAGSGFTFSSYDMNWVRQAPGKGLERVSTTFNGDDGTNYADSVLGRFTASRDKAKNTLYLQMNSLKTEDTAVYYCAAAVPGVDWYDTTRYKYWGQGTQVTVSS | 47 nM | 0.13 s⁻¹ | 2.8e+06 M⁻¹ s⁻¹ | 50 nM | 0.04 s⁻¹ | 790000 M⁻¹ s⁻¹ |
| anti-BCMA sdAb BCMA1 (VHH, part only, affinity tag) VHH: QVQLVESGGGSVQAGGSLRLSCKASGAIYDTNCMAWFRQTPGKEREGVATIDLGNPITYYADSVKGRFTISRDNAKNTMYLQMNSLEPEDTAMYYCAATSWWPCTTFNAGYANWGQGTQVTVSS | 10 nM | 0.29 s⁻¹ | 2.9e+07 M⁻¹ s⁻¹ | 0.64 nM | 0.00043 s⁻¹ | 670000 M⁻¹ s⁻¹ |
| anti-BCMA sdAb BCMA13 (VHH, part only, affinity tag) VHH: QVHLVESGGGSVQAGGSLRLSCKASGAIYDTNCMAWFRQTPGKEREGVATIDLGNPITYYADSVKGRFTISRDNAKNTMYLQMNSLKPEDTAMYYCAATSWWPCPANNVGYANWGQGTQVTVSS | 77 nM | 0.053 s⁻¹ | 690000 M⁻¹ s⁻¹ | 13 nM | 0.018 s⁻¹ | 1.4e+06 M⁻¹ s⁻¹ |
| anti-BCMA sdAb BCMA7 (VHH, part only, affinity tag) VHH: QVHLMESGGGSVQSGGSLRLSCAASGYTYSSYCMAWFRQAPGKEREGVAAIASDGSTYYTDSVKGRFTISQDNAKNTLYLQMNSLKPEDTAMYYCGADPVGCSWPDYWGQGTQVTVSS | 46 nM | 0.1 s⁻¹ | 2.3e+06 M⁻¹ s⁻¹ | 43 nM | 0.056 s⁻¹ | 1.3e+06 M⁻¹ s⁻¹ |

Results, then the binder that gave them:

| Kd [1] | koff [1] | kon [1] | Kd [2] | koff [2] | kon [2] | Binder |
| --- | --- | --- | --- | --- | --- | --- |
| 23 nM | 0.025 s⁻¹ | 1.1e+06 M⁻¹ s⁻¹ | 4.3 nM | 0.004 s⁻¹ | 940000 M⁻¹ s⁻¹ | anti-BCMA sdAb BCMA12 (VHH, part only, affinity tag) VHH: QVHLVESGGGSVQAGGSLRLSCKSSGATYSSNCMAWFRQTPGKEREGVATIDLASHGTYYADSVKGRFTISRDNAKNTMYLQMSGLRPEDTALYYCAATSWWPCTTFNGGYASWGQGTQVTVSS |
| 4.9 nM | 0.026 s⁻¹ | 5.4e+06 M⁻¹ s⁻¹ | 0.83 nM | 0.00091 s⁻¹ | 1.1e+06 M⁻¹ s⁻¹ | anti-BCMA sdAb BCMA6 (VHH, part only, affinity tag) VHH: QMQLVESGGGSVQAGGSLRLSCTASGYTFDDSAMGWYRQAPGNECELVSSISSDGSTYYSDSVKGRFTISQDNAKNTMYLQMNSLKPEDTAVYSCAASSGEDGGSWSTPCHFFGYWGQGTQVTVSS |
| 48 nM | 0.37 s⁻¹ | 7.8e+06 M⁻¹ s⁻¹ | 13 nM | 560 s⁻¹ | – | anti-BCMA sdAb BCMA8 (VHH, part only, affinity tag) VHH: QVQLVESGGGSVQAGGSLRLSCAASGGTRSWNYMAWFRQAPGKEREDVAIIDNVGSTRYADSVKGRFTISQDTAQNTLYLQMNSLKPEDTAMYYCAARVSWCEDPPCGFDYWGQGTQVTVSS |

From patent US20220265709A1
